# Assay results as given in paper PMC5577323, “Oxidant sensor in the cGMP-binding pocket of PKGIα regulates nitroxyl-mediated kinase activity” (Scientific Reports, 2017).
# Molecular target: the molecule itself
# Assay: cross-linking; interprotein disulfide formed in transfected HEK-293 cells (vehicle, NCA 100 µmol/L 30 min or AS 500 µmol/L 15 min); homogenates in non-reducing Laemmli buffer with 100 mmol/L maleimide, SDS-PAGE, western blot for PKGIα; 150 kDa band lost with 2-mercaptoethanol
protein,measurement,value
"cGMP-dependent protein kinase I-alpha (PKGIα), human, wildtype (enzyme, UniProt Q13976 1-671, looked up, interprotein disulfide at Cys42 (between the two subunits); intradisulfide Cys117-Cys195 after HNO donors, written here as one chain because the row is of the protein with itself; also called WT PKGIα; PKGIα WT; source: HEK-293, transfected (pcDNA3), in cell homogenate) MSELEEDFAKILMLKEERIKELEKRLSEKEEEIQELKRKLHKCQSVLPVPSTHIGPRTTRAQGISAEPQTYRSFHDLRQAFRKFTKSERSKDLIKEAILDNDFMKNLELSQIQEIVDCMYPVEYGKDSCIIKEGDVGSLVYVMEDGKVEVTKEGVKLCTMGPGKVFGELAILYNCTRTATVKTLVNVKLWAIDRQCFQTIMMRTGLIKHTEYMEFLKSVPTFQSLPEEILSKLADVLEETHYENGEYIIRQGARGDTFFIISKGTVNVTREDSPSEDPVFLRTLGKGDWFGEKALQGEDVRTANVIAAEAVTCLVIDRDSFKHLIGGLDDVSNKAYEDAEAKAKYEAEAAFFANLKLSDFNIIDTLGVGGFGRVELVQLKSEESKTFAMKILKKRHIVDTRQQEHIRSEKQIMQGAHSDFIVRLYRTFKDSKYLYMLMEACLGGELWTILRDRGSFEDSTTRFYTACVVEAFAYLHSKGIIYRDLKPENLILDHRGYAKLVDFGFAKKIGFGKKTWTFCGTPEYVAPEIILNKGHDISADYWSLGILMYELLTGSPPFSGPDPMKTYNIILRGIDMIEFPKKIAKNAANLIKKLCRDNPSERLGNLKNGVKDIQKHKWFEGFNWEGLRKGTLTPPIIPSVASPTDTSNFDSFPEDNDEPPPDDNSGWDIDF",stoichiometry N,2
